Experimental data reported in patent publication US20180271998A1 (MERRIMACK PHARMACEUTICALS, published 2018).
Where a chain is given by its changes, count along the chain named. Numbers in names are those of the source.

B1: anti-EphA2 Fab 12 (IgG1 G44C, C233S heavy chain; lambda G100C, C214S light chain), Fab-PEG-DSPE conjugate (Fab, V domains shown)
VH: QVQLVQSGGGLVQPGGSLRLSCAASGFTFSSYAMHWVRQAPGKCLEWVTVISPDGHNTYYADSVKGRFTISRDNSKNTLYLQMNSLRAEDTAVYYCARASVGATGPFDIWGQGTLVTVSS
VL: SSELTQPPSVSVAPGQTVTITCQGDSLRSYYASWYQQKPGTAPKLLIYGENNRPSGVPDRFSGSSSGTSASLTITGAQAEDEADYYCNSRDSSGTHLTVFGCGTKLTVLG
modifications: mal-PEG(2000)-DSPE linker conjugated to the C-terminal cysteine of the heavy chain (Cys in DKTHTCAA)
B2: anti-EphA2 Fab 18 (IgG1 G44L, H172E, F174C, C233S heavy chain; lambda G100L, T162D, S176C, C214S light chain), Fab-PEG-DSPE conjugate (Fab, V domains shown)
VH: B1 VH with C44L
VL: B1 VL with C102L
modifications: mal-PEG(2000)-DSPE linker conjugated to the C-terminal cysteine of the heavy chain (Cys in DKTHTCAA)
B3: anti-EphA2 Fab 16 (IgG1 H172F, F174C, C233S heavy chain; lambda T162L, S174V, S176C, C214S light chain), Fab-PEG-DSPE conjugate (Fab, V domains shown)
VH: B1 VH with C44G
VL: B1 VL with C102G
modifications: mal-PEG(2000)-DSPE linker conjugated to the C-terminal cysteine of the heavy chain (Cys in DKTHTCAA)
B4: anti-EphA2 Fab 19 (IgG1 G44L, H172F, F174C, C233S heavy chain; lambda G100L, T162L, S174V, S176C, C214S light chain), Fab-PEG-DSPE conjugate (Fab, V domains shown)
VH: B1 VH with C44L
VL: B1 VL with C102L
modifications: mal-PEG(2000)-DSPE linker conjugated to the C-terminal cysteine of the heavy chain (Cys in DKTHTCAA)
B5: anti-EphA2 Fab 15 (IgG1 H172E, F174C, C233S heavy chain; lambda T162D, S176C, C214S light chain), Fab-PEG-DSPE conjugate (Fab, V domains shown)
VH: B1 VH with C44G
VL: B1 VL with C102G
modifications: mal-PEG(2000)-DSPE linker conjugated to the C-terminal cysteine of the heavy chain (Cys in DKTHTCAA)
B6: anti-EphA2 Fab 14 (IgG1 G44C, F174C, C233S heavy chain; lambda G100C, S176C, C214S light chain), Fab-PEG-DSPE conjugate (Fab, V domains shown)
VH: B1 VH
VL: B1 VL
modifications: mal-PEG(2000)-DSPE linker conjugated to the C-terminal cysteine of the heavy chain (Cys in DKTHTCAA)
B7: anti-EphA2 Fab 17 (IgG1 G44L, F174C, C233S heavy chain; lambda G100L, S176C, C214S light chain), Fab-PEG-DSPE conjugate (Fab, V domains shown)
VH: B1 VH with C44L
VL: B1 VL with C102L
modifications: mal-PEG(2000)-DSPE linker conjugated to the C-terminal cysteine of the heavy chain (Cys in DKTHTCAA)
B8: anti-EphA2 Fab 13 (IgG1 F174C, C233S heavy chain; lambda S176C, C214S light chain), Fab-PEG-DSPE conjugate (Fab, V domains shown)
VH: B1 VH with C44G
VL: B1 VL with C102G
modifications: mal-PEG(2000)-DSPE linker conjugated to the C-terminal cysteine of the heavy chain (Cys in DKTHTCAA)

Assays:
[1] = target: T1, Recombinant, Human EphA2 with C-terminal hexahistidine appended (human, UniProt P29317 25-534); assay: BLI (Octet Red 96), EphA2-His on anti-His5 sensors, Fab-PEG-DSPE conjugate
T1 construct: Captured on anti-His5 sensors; also called his-tagged recombinant, human EphA
Description: (§1) The Fab-PEG-DSPE conjugates were assayed for EphA2 binding strength using the FortéBIO® Octet® Red 96 system (Pall Corporation) to determine whether conjugation or engineering of the Fab affected binding activity. […] Anti-His5 sensors were first coated with his-tagged recombinant, human EphA (SEQ ID NO:47) at a concentration of 10 μg/ml protein in PBS. The sensors were then incubated in 4 μg/ml of Fab-PEG-DSPE conjugate in PBS. The slope of an association curve between 2-10 seconds was determined and compared across the variants and to the reference conjugate, Fab 11-PEG-PE, which is the anti-EphA2 antibody with wild-type disulfide pairing.

[2] = target: T1, Recombinant, Human EphA2 with …; assay: BLI (Octet Red96), EphA2-His on anti-His5 sensors, liposomes with inserted conjugate
Description: (§2) The purified liposomes were assayed for EphA2 binding strength by FortéBIO® Octet® Red96 system (Pall) in PBS at 25 μM liposome phospholipid using anti-His5 sensors coated with recombinant human EphA2 with C-terminal hexahistidine (SEQ ID NO:47). The slope of the association curve from 3-20 sec was determined and compared to the slope observed for liposomes with inserted conjugate of the wild type Fab.

[3] = target: T1, Recombinant, Human EphA2 with …; assay: BLI (Octet Red 96), EphA2-His on anti-His5 sensors, 4 ug/ml Fab-PEG-DSPE conjugate, slope of association curve 2-10 s relative to Fab 11 conjugate
Description: as §1

[4] = target: T1, Recombinant, Human EphA2 with …; assay: BLI (Octet Red96), EphA2-His on anti-His5 sensors, doxorubicin liposomes with inserted Fab-PEG-DSPE conjugate at 25 uM phospholipid, slope of association curve 3-20 s relative to Fab 11 liposomes
Description: as §2

T1 sequence (P29317 other isoform, or with tags, fused parts or gaps limits assumed): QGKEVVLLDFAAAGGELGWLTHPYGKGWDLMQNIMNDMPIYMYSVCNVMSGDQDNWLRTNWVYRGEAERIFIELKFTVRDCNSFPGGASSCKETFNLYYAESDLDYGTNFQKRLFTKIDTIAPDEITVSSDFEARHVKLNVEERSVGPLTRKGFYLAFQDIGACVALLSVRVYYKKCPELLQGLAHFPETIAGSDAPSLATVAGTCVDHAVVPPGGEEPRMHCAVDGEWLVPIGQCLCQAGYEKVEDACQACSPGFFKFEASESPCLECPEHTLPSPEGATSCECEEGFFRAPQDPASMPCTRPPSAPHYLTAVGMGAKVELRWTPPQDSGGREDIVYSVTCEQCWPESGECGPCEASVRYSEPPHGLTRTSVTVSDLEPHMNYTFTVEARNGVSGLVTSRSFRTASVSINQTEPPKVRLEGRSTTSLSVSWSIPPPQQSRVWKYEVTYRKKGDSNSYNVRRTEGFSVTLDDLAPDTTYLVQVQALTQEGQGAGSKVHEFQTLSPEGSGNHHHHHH

Binder | binding strength compared to wild-type protein conjugate [1] [%] | EphA2 binding strength compared to control liposomes [2] [%] | Binding strength, % of wild type conjugate [3] | Fab-liposome binding strength, % of control [4]
B1 | 75 | > 80 | 108 % of wild type conjugate | 109 % of control
B2 | 75 | > 80 | 75.5 % of wild type conjugate | 99.6 % of control
B3 | 75 | > 80 | 85 % of wild type conjugate | 89.3 % of control
B4 | 75 | > 80 | 96.8 % of wild type conjugate | 83.3 % of control
B5 | 75 | > 80 | 86 % of wild type conjugate | 102 % of control
B6 | 75 | > 80 | 105 % of wild type conjugate | 120 % of control
B7 | 75 | > 80 | 89.7 % of wild type conjugate | 102 % of control
B8 | 75 | > 80 | 96.9 % of wild type conjugate | 96.5 % of control
